No end group written: not given here. *: point of attachment. 5‑TAMRA = 5-carboxytetramethylrhodamine label, CN(C)c1ccc2c(-c3ccc(C(=O)*)cc3C(=O)[O-])c3ccc(=[N+](C)C)cc-3oc2c1
Target: Purified Arp2/3 complex
Assay: fluorescence anisotropy, labelled ArpinA peptide titrated with purified Arp2/3 complex

- Kd: 384 nM
Binder: {5‑TAMRA}-EIREQGDGAEDEEWDD [ArpinA peptide labelled with 5-TAMRA at the N-terminus]
